Test results: article PMC3401385 (Cell Reports, 2012)
Values belong to the binder of their own block, whether it stands above or below them.

How the values were obtained:
eIF2β K2K3 = target: T1, eIF2β K2K3 (Saccharomyces cerevisiae, UniProt P09064); experiment: ITC
T1 chain: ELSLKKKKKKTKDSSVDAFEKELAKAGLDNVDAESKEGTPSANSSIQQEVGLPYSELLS

eIF2 ternary complex = target: T2, eIF2 ternary complex (Saccharomyces cerevisiae, UniProt P20459)
T2 chain 1: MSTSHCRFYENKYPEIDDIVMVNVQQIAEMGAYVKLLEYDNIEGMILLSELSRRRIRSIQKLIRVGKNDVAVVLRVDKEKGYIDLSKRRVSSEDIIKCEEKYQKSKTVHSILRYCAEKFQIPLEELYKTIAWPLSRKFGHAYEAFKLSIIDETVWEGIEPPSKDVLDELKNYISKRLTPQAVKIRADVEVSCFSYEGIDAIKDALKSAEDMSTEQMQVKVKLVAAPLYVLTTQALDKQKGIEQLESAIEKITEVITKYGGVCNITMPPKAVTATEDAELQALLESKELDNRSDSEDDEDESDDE
T2 chain 2: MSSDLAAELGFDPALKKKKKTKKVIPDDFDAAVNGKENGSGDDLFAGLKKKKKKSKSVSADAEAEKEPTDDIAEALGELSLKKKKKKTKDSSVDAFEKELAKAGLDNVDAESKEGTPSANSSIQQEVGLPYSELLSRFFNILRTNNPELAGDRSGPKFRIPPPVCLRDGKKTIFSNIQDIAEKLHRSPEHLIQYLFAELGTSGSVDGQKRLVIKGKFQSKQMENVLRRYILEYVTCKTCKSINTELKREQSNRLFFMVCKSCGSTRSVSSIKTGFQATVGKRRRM
T2 chain 3: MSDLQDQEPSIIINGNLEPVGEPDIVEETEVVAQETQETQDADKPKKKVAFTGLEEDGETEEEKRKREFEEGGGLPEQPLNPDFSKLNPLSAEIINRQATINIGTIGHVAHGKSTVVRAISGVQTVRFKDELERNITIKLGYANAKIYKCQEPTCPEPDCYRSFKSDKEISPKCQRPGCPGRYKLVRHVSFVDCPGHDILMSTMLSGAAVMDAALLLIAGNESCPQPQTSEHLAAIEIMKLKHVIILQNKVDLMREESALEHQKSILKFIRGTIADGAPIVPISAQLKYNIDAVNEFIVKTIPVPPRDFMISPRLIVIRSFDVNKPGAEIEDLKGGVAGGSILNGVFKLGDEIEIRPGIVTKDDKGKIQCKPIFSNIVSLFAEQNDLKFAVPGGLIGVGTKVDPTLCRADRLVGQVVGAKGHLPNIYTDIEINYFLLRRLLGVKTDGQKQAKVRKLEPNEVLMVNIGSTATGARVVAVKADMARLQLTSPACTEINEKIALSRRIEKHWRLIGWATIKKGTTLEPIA

[1] = target: human eIF5-CTD (carboxyl-terminal domain of eukaryotic initiation factor 5), wild type (human, UniProt P55010 225-407); experiment: ITC
Chain of human eIF5-CTD (carboxyl-terminal domain of eukaryotic initiation factor 5), wild type (P55010 225-407): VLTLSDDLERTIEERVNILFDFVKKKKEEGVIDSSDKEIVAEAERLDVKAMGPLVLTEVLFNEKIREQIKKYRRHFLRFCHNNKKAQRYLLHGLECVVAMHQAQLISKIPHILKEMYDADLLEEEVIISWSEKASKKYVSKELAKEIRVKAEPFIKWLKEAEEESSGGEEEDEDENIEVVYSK

Kd (eIF2β K2K3): ~4 µM
B1: eIF5 CTD (protein)
chain: VNSELTQLDEYGEWILEQAGEDKENLPSDVELYKKAAELDVLNDPKIGCVLAQCLFDEDIVNEIAEHNAFFTKILVTPEYEKNFMGGIERFLGLEHKDLIPLLPKILVQLYNNDIISEEEIMRFGTKSSKKFVPKEVSKKVRRAAKPFITWLETAESDDDEEDDE

Kd (eIF2 ternary complex): 0.1 µM
B2: eIF5 (protein)
chain: MSINICRDNHDPFYRYKMPPIQAKVEGRGNGIKTAVLNVADISHALNRPAPYIVKYFGFELGAQTSISVDKDRYLVNGVHEPAKLQDVLDGFINKFVLCGSCKNPETEIIITKDNDLVRDCKACGKRTPMDLRHKLSSFILKNPPDSVSGSKKKKKAATASANVRGGGLSISDIAQGKSQNAPSDGTGSSTPQHHDEDEDELSRQIKAAASTLEDIEVKDDEWAVDMSEEAIRARAKELEVNSELTQLDEYGEWILEQAGEDKENLPSDVELYKKAAELDVLNDPKIGCVLAQCLFDEDIVNEIAEHNAFFTKILVTPEYEKNFMGGIERFLGLEHKDLIPLLPKILVQLYNNDIISEEEIMRFGTKSSKKFVPKEVSKKVRRAAKPFITWLETAESDDDEEDDE

Kd [1]: ~4 µM
B3: eIF2β-K2K3 (eIF2β residues 53-135, with the K2 and K3 lysine boxes) (domain or fragment, UniProt P20042 53-135, looked up)
chain: DLEADEEDTRKKDASDDLDDLNFFNQKKKKKKTKKIFDIDEAEEGVKDLKIESDVQEPTEPEDDLDIMLGNKKKKKKNVKFPD
